Measurements reported in patent publication US20230091315A1 (CISBIO BIOASSAYS, published 2023).

Legend:
[1] = target: T1, human recombinant G-protein alphai1 fused at the N-terminal with a Tag Twin-Strep-tag (TST-G protein alphai1) (human, UniProt B2RSH2 1-354 (mouse entry)); experiment: HTRF (TR-FRET) titration of antibody-d2 on 2.5 nM Twin-Strep-tagged Gαi1 with anti-Twin-Strep-tag-Lumi4 Tb; condition: GDP 10 µM
T1 construct: Purified protein made in Sf9 insect cells; also called G-protein αi1; protein Gαi1
Procedure: (§1) These two reagents were prepared in one and the same solution and were preincubated for 30 minutes at room temperature before being distributed in the wells. The antibodies DSV36S-d2, DSV38S-d2 and SC13533-d2 were prepared 4× for final concentrations in the wells between 0.01 and 10 nM depending on the antibodies.
(§2) Moreover, the antibody titration curves obtained make it possible to calculate the affinity (Kd) of these different antibodies for the G-protein αi1. This was carried out using the GraphPad Prism software by applying a “one site specific binding” model to the HTRF data.

[2] = target: T1, human recombinant G-protein alphai1 …; experiment: HTRF (TR-FRET) titration of antibody-d2 on 2.5 nM Twin-Strep-tagged Gαi1 with anti-Twin-Strep-tag-Lumi4 Tb; condition: GTP 10 µM as printed (the protocol names GTPgS)
Procedure: as §1, §2

[3] = target: T1, human recombinant G-protein alphai1 …; experiment: HTRF (TR-FRET) titration of antibody-d2 on 2.5 nM Twin-Strep-tagged Gαi1 with anti-Twin-Strep-tag-Lumi4 Tb; condition: Buffer only
Procedure: as §1, §2

[4] = target: T1, human recombinant G-protein alphai1 …; experiment: HTRF competition on Gαi1 + GTPgS: unlabeled antibody varied against 36S-d2 (DSV36S-d2, 10 nM), detection with anti-Twin-Strep-tag-Lumi4 Tb
Procedure: (§3) These two reagents were prepared in one and the same solution and were preincubated for 30 minutes at room temperature before being distributed in the wells. The cold antibodies DSV36S, DSV38S, DSV26S, DSV3S, and DSV39S were prepared 4× for final concentrations in the wells between 0.001 and 1 μM. The antibody DSV36S-d2 was prepared 4× for a final concentration of 10 nM.
(§4) 1) 10 μl of the preincubated mixture of G-protein αi1 +GTPgS was put in each well, 2) 5 μl of the unlabeled antibodies DSV36S, DSV38S, DSV26S, DSV3S, and DSV39S was added to each well, 3) The plates were incubated for 30 minutes at room temperature, 4) 5 μl of the anti Twin-Strep-tag-Lumi4 Tb antibody and of the antibody DSV36S-d2 were added to each well.

[5] = target: T1, human recombinant G-protein alphai1 …; experiment: HTRF competition on Gαi1 + GTPgS: unlabeled antibody varied against DSV36S-d2 (10 nM), detection with anti-Twin-Strep-tag-Lumi4 Tb
Procedure: as §3, §4

T1 sequence (B2RSH2 whole entry, the tested form may be a part): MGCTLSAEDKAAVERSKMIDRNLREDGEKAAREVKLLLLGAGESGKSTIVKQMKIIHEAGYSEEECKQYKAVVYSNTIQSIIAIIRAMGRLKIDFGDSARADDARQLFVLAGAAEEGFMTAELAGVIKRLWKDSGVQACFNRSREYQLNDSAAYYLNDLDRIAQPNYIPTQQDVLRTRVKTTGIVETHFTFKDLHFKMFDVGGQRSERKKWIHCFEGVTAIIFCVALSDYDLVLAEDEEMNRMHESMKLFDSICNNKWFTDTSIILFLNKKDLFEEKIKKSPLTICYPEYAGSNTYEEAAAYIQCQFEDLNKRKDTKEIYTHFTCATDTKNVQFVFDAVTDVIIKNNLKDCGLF

B1: antibody DSV36S (antibody, V domains shown)
VH: EVQLQQSGAELVRPGALVKLSCKASGFNIKDYYMHWVKQRPEQGLEWIGWIDPENGNTIYDPKFQGKASITADTSSNTAYLQLSSLTSEDTAVYYCTRGGGYYSDWYFDVWGAGTTVTVSS
VL: QIVLTQSPAIMSASPGEKVTMTCSASSSVSYMHWYQQKSGTSPKRWIYDTSKLASGVPARFSGSGSGTSYSLTISSMEAEDAATYYCQQWSSNPPITFGAGTKLELK
notes: Used unlabeled or labeled with d2 (acceptor) or Lumi4Tb (donor); also called DSV36S-d2; DSV36S-Lumi4Tb
B1 showed a Kd [1] of 0.48 nM, a Kd [2] of 0.31 nM and a Kd [3] of 0.82 nM. For the same binder, the “IC50 (read off the curve)” value [4] was about 0.5 nM and the “IC50 (read off the curve)” value [5] was about 0.5 nM.
